{"source": "paper PMC4195752", "about": "“The Structure of an LIM-Only Protein 4 (LMO4) and Deformed Epidermal Autoregulatory Factor-1 (DEAF1) Complex Reveals a Common Mode of Binding to LMO4” (PLoS ONE, 2014)", "binders": {"B1": {"name": "DEAF1 residues 404-418 (in the tethered complex) (peptide, UniProt Q9Z1T5-1 404-418, looked up)", "chain": "IAPFPEAALPTSHPK", "notes": "Stood in the assay joined through a glycine-serine linker to the C-terminus of LMO4 77-147 on one chain; also called the DEAF1 peptide"}}, "target": "T1, LMO4 second LIM domain, residues 77-147 (in the tethered complex) (mouse, UniProt P61969 77-147)", "T1 construct": "LMO4, mouse, LIM2 domain, residues 77-147; also called LMO4_(LIM2); LMO4_(77–147)", "T1 sequence (looked up)": "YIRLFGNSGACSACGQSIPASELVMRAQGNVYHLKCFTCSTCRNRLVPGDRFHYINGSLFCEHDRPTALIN", "assay": "NMR solution structure; the two domains tethered on one chain by a glycine-serine linker; 20 mM sodium acetate pH 5.0, 35 mM NaCl, 0.5 mM TCEP-HCl", "conditions": "both partners purified", "data": [{"binder": "B1", "values": [{"measurement": "binding result", "result": "binds"}]}]}
